The target of series [1] is recombinant full-length BmExd1 (Bombyx mori). Briefly: AUC.
Another series concerns the target T1, BmExd1 full-length (UniProt H9IUR0 1-315).
T1 sequence: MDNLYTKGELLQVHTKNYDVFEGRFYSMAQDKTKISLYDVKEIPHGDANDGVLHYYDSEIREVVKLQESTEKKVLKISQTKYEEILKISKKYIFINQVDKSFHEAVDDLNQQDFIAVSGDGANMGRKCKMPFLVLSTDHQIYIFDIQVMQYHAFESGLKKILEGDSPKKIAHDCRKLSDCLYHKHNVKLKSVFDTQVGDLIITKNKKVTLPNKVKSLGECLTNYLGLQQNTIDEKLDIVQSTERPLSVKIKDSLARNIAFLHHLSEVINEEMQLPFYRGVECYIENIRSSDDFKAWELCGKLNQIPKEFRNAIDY
Briefly: ITC. On the technique in general: ITC needs no label: the signal is the heat of the interaction.

With “recombinant full-length BmExd1 (natural protein)”, the stoichiometry N (commonly the number of molecules, sites or subunits per partner or assembly) in series [1] stood at 2.

B1: ITC RNA (21 nt) (ssRNA)
RNA: GGGGUAUUCUUUAAUUAUUUC
For B1, in the series with BmExd1 full-length, the dissociation constant Kd (usually the free concentration of one partner at which half of the binding sites on the other are occupied at equilibrium, for simple one-to-one binding) was determined as 27 µM.
